# Experiment: protein stability index of a GFP-peptide fusion (GPS, HEK-293T) (PSI 1-6); higher = more stable
# 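Also: lentivirally expressed fusions sorted by FACS into six bins by GFP to DsRed ratio, PSI derived from sequencing read proportions per bin multiplied by bin number.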
protein,measurement,setting,value
AEVVKIRDSFSNQNTETKDTKSR [DLC1 WT],protein stability index,"parent: IOH28890_253, c terminus: native",2.4
PCAGSTSLSHSPGCSSTQGNGRPG,protein stability index,"parent: IOH28989_16, c terminus: a fixed tail appended",3.04
EPHKCPECGKRFLRSSDLYRHQRL,protein stability index,"parent: IOH29221_59, c terminus: a fixed tail appended",3.96
YQLGEEALLKFREDEGFVREEEDR,protein stability index,"parent: IOH29649_44, c terminus: a fixed tail appended",4.53
YRHQRLHTGERPYECTVCKKRFTR,protein stability index,"parent: IOH29221_62, c terminus: a fixed tail appended",2.36
YQSGGRLKRPVNVPFDIFTEEVKF,protein stability index,"parent: IOH29649_40, c terminus: a fixed tail appended",1.82
TLHQRTHTEERPFKCNYCGKSFRQ,protein stability index,"parent: IOH29221_76, c terminus: a fixed tail appended",2.24
YINFRHLYKQRRRRYGQKKKKIH,protein stability index,"parent: IOH29075_58, c terminus: native",2.11
KEMARKVIEHCSNFKEENMDTSR,protein stability index,"parent: IOH29391_126, c terminus: native",3.58
TGTSNTTAIKSIEFARKGSCFLIN [RBBP5 WT],protein stability index,"parent: IOH28957_33, c terminus: a fixed tail appended",2.08
YSFYMLTCIDMDWKVLTWLRYTLW,protein stability index,"parent: IOH29075_44, c terminus: a fixed tail appended",2.31
CTHCSKSFRQRAGLIMHQVTHFRG,protein stability index,"parent: IOH29221_83, c terminus: a fixed tail appended",2
YKVKERLGTLKNPPKKKMKLMSG,protein stability index,"parent: IOH28989_68, c terminus: native",1.99
HKKKSPGEKPHRCPQCGKCFARKS,protein stability index,"parent: IOH29221_53, c terminus: a fixed tail appended",3.46
FQEYDTDCEVFRQRFRQFQYREAA,protein stability index,"parent: IOH29221_4, c terminus: a fixed tail appended",2.58
FHALVREIRRKEKEAVLAMEKKSK [RIT1 WT],protein stability index,"parent: IOH29584_30, c terminus: a fixed tail appended",1.93
QLTGHQRIHSGEEPHKCPECGKRF,protein stability index,"parent: IOH29221_57, c terminus: a fixed tail appended",4.05
PILRLLPQGISPVSQHWATWALYN,protein stability index,"parent: IOH29391_115, c terminus: a fixed tail appended",3.03
IPPYSRASLKGYQWLKDKILSEEG,protein stability index,"parent: IOH29625_44, c terminus: a fixed tail appended",1.84
HTGERPYECTVCKKRFTRRSHLIG,protein stability index,"parent: IOH29221_63, c terminus: a fixed tail appended",2.07
VFGRGDNISDVSKFLEDDKWMEE [CROP WT],protein stability index,"parent: IOH29119_14, c terminus: native",1.95
RIHSGEEPHKCPECGKRFLRSSDL,protein stability index,"parent: IOH29221_58, c terminus: a fixed tail appended",3.27
YSLELGKAIKQKLWEALCSQGAIS [C22orf31 WT],protein stability index,"parent: IOH35430_40, c terminus: a fixed tail appended",2.63
FDGPEAWGVCEPQREEVEERMWAA,protein stability index,"parent: IOH29391_108, c terminus: a fixed tail appended",2.7
YVDVVFANRPDPNTPMEETVRAMT,protein stability index,"parent: IOH29625_26, c terminus: a fixed tail appended",1.96
RLRGLLRVLRGRPGAGSRRRGRMA [FBXO33 WT],protein stability index,"parent: IOH28939_7, c terminus: a fixed tail appended",2.16
SSIIHEIDSILGNKPYSKKDYRS,protein stability index,"parent: IOH29625_62, c terminus: native",2.88

# From the supplement of paper PMC10567573
